The source of these data is publication PMC5244417, “Time-resolved neutron scattering provides new insight into protein substrate processing by a AAA+ unfoldase” (Scientific Reports, 2017).

Several values for one entry are separate records, joined by “and”; a condition that tells them apart may be missing. Equal values may be shown once.

The data set concerns the molecule itself. Kind of data set: SEC; Superose 6 gel filtration of purified PAN, before heating. (SEC sorts molecules by how far they enter the pores of the column.)

B1: PAN (proteasome activating nucleotidase) unfoldase from Methanocaldococcus jannaschii (enzyme, UniProt Q58576 1-430, looked up)
chain: MVFEEFISTELKKEKKAFTEEFKEEKEINDNSNLKNDLLKEELQEKARIAELESRILKLELEKKELERENLQLMKENEILRRELDRMRVPPLIVGTVVDKVGERKVVVKSSTGPSFLVNVSHFVNPDDLAPGKRVCLNQQTLTVVDVLPENKDYRAKAMEVDERPNVRYEDIGGLEKQMQEIREVVELPLKHPELFEKVGIEPPKGILLYGPPGTGKTLLAKAVATETNATFIRVVGSELVKKFIGEGASLVKDIFKLAKEKAPSIIFIDEIDAIAAKRTDALTGGDREVQRTLMQLLAEMDGFDARGDVKIIGATNRPDILDPAILRPGRFDRIIEVPAPDEKGRLEILKIHTRKMNLAEDVNLEEIAKMTEGCVGAELKAICTEAGMNAIRELRDYVTMDDFRKAVEKIMEKKKVKVKEPAHLDVLYR
notes: Purified as a mixture of dodecamers and hexamers; Monodisperse hexamers were obtained after heating at 60 °C with ATP and MgCl2; Perdeuterated PAN (dPAN) was used for the SANS data on PAN; also called MjPAN; PAN complex
As a reminder, the stoichiometry N is a count of units in the complex or per binding partner. B1: the “stoichiometry N” value is 12 and 6.
